Measurements: patent US20230193248A1

T1: M15-K(biotin)-AAR (SEQ ID NO: 8) peptide
T1 chain: KAAR


Experiments:
[1] = target: M15-L-P1 target polypeptide, P1 = A
[2] = target: M15-L-P1 target polypeptide, P1 = M
[3] = target: M15-L-P1 target polypeptide, P1 = V
[4] = target: M15-L-P1 target polypeptide, P1 = L
[5] = target: M15-L-P1 target polypeptide, P1 = I
[6] = target: M15-L-P1 target polypeptide, P1 = Q
[7] = target: T1, M15-K(biotin)-AAR (SEQ ID NO: 8) peptide

Protein | cleavage of single labeled NTAA [1] | cleavage of single labeled NTAA [2] | cleavage of single labeled NTAA [3] | cleavage of single labeled NTAA [4] | cleavage of single labeled NTAA [5] | cleavage of single labeled NTAA [6] | percentage of conversion to cleavage product M15-K(biotin)-A (HPLC, UV absorbance at 254 nm) [7]
first selected modified cleavase (M15-L Z001) (protein) MHKTRLVAALAAALATLAPAAWADEGMWVPQQLPEIAGALKKAGLKLDPKQLSDLTGDPMGAVVSLGGCTGSFVSPQGLVATNHHCAYGAIQLNSTPEKNLIKDGFNAPTQADELSAGPNARIYVLEGITDVTAQAKAAMAAAGNDPVARANALEAFEKKITSDCEAEPGYRCRVYSFMGGITYRLFKNLEIKDVRLVYAPPSSVGKFGGDIDMGMWPTHTGDFSFYRAYVGKDGKPAPYSKDNVPYRPKHWLKIADTPLGEGDFVMVAGYPGRTDRYALVAEFENTQNWLYPAISKAYKDQIALVEAAAKDNPEIAVKYAAALAGWNRTSKNFDGQLEGFKRNDVLAIKRREEAAVLEWLRARGKAGTPALEAHAALVKLVADTARTQERDLVLGSFNRTGIIGVAVNLYRLAIERQKPDAEREPGYQQRDLPVIEGSLKQMERRYVPAMDRQLRAYWLDRYVALPAAQHVAAVDAWLGGSDKAAAEAALARLDQSRLGSLEERLKWFNADRAAFEASTDPAIQYAVAVMPTLLAMEQQAKTRYGVALEARPRYLQAVVDYKKSKGQAVYPDANSTLRITYGHVKGYTGLNGKVYTPFTTLEEVAAKETGVEPFDNPKALLEAVAAKRYAGLADARLGTVPVNFLADLDITGGNSGSPVLDANGRLVGLAFAGTLESVASNWVFDPVLTRMISVDQRYMRWIMQEVMPAPQLLEELGVPPRQ | provided 100% cleavage | provided 100% cleavage | provided 100% cleavage | provided 100% cleavage | provided 100% cleavage | provided 100% cleavage | 
engineered dipeptidyl peptidase clone (SEQ ID NO: 11) derived from dipeptidyl peptidase from Thermomonas hydrothermalis (SEQ ID NO: 10) (protein) DEGMWVPQQLPEIAGALKKAGLKLDPKQLSDLTGDPMGAVVSLGGCTGSFVSPQGLVATNHHCAYGAIQLNSTPEKNLIKDGFNAPTQADELSAGPNARIYVLEGITDVTAQAKAAMAAAGNDPVARANALEAFEKKITSDCEAEPGYRCRVYSFMGGITYRLFKNLEIKDVRLVYAPPSSVGKFGGDIDMGMWPTHTGDFSFYRAYVGKDGKPAPYSKDNVPYRPKHWLKIADTPLGEGDFVMVAGYPGRTDRYALVAEFENTQNWLYPAISKAYKDQIALVEAAAKDNPEIAVKYAAALAGWNRTSKNFDGQLEGFKRNDVLAIKRREEAAVLEWLRARGKAGTPALEAHAALVKLVADTARTQERDLVLGSFNRTGIIGVAVNLYRLAIERQKPDAEREPGYQQRDLPVIEGSLKQMERRYVPAMDRQLRAYWLDRYVALPAAQHVAAVDAWLGGSDKAAAEAALARLDQSRLGSLEERLKWFNADRAAFEASTDPAIQYAVAVMPTLLAMEQQAKTRYGVALEARPRYLQAVVDYKKSKGQAVYPDANSTLRITYGHVKGYTGLNGKVYTPFTTLEEVAAKETGVEPFDNPKALLEAVAAKRYAGLADARLGTVPVNFLADLDITGGNSGSPVLDANGRLVGLAFAVTLESVASNWVFDPVLTRMISVDQRYMRWIMQEVMPAPQLLEELGVPPRQ |  |  |  |  |  |  | about 10% of the model peptide was converted to the cleavage product, M15-K(biotin)-A
